Measurements reported in US20170088632A1 (OMEROS, published 2017).

B1: scFv daughter clone 17N16m_d17N9 (scFv)
scFv: QVQLQQSGPGLVKPSQTLSLTCAISGDSVSSTSAAWNWIRQSPSRGLEWLGRTYYRSKWYNDYAVSVKSRITINPDTSKNQFSLQLNSVTPEDTAVYYCARDPFGVPFDIWGQGTMVTVSSKLSGSASAPKLEEGEFSEARVSYELIQPPSVSVAPGQTATITCAGDNLGKKRVHWYQQRPGQAPVLVIYDDSDRPSGIPDRFSASNSGNTATLTITRGEAGDEADYYCQVWDIATDHVVFGGGTKLTVLAAAGSEQKLISE
notes: also called 17N9 daughter clone
B2: scFv mother clone 17N16 (scFv)
scFv: QVQLQQSGPGLVKPSQTLSLTCAISGDSVSSTSAAWNWIRQSPSRGLEWLGRTYYRSKWYNDYAVSVKSRITINPDTSKNQFSLQLNSVTPEDTAVYYCARDPFGVPFDIWGQGTMVTVSSKLSGSASAPKLEEGEFSEARVSYVLTQPPSVSVAPGQTARITCGGNNIGSKNVHWYQQKPGQAPVLVVYDDSDRPSGIPERFSGSNSGNTATLTVSRVEAGDEADYYCQVWDTTTDHVVFGGGTKLTVLAAAGSEQKLISEEDLNSHHHHHH
notes: also called 17N16mc; 17N16m
B3: scFv mutagenesis clone #90 of 17D20 (scFv)
scFv: QVTLKESGPVLVKPTETLTLTCTVSGFSLSRGKMGVSWIRQPPGKALEWLAHIFSSDEKSYRTSLKSRLTISKDTSKNQVVLTMTNMDPVDTATYYCARIRPGGIDYWGQGTLVTVSSKLSGSASAPKLEEGEFSEARVQPVLTQPPSVSVSPGQTASITCSGDKLGDKFAYWYQQKPGHSPVLVIYQDNKRPSGIPGRFSGSNSGNTATLTISGTQAMDEADYYCQAWDSSTAVFGTGTKVTVLAAAGSEQKLISEEDLNSHHHHHH
B4: 17D20 mother clone, F(ab′)2 format (Fab, V domains shown)
VH: QVTLKESGPVLVKPTETLTLTCTVSGFSLSRGKMGVSWIRQPPGKALEWLAHIFSSDEKSYRTSLKSRLTISKDTSKNQVVLTMTNMDPVDTATYYCARIRAGGIDYWGQGTLVTVSS
VL: QPVLTQPPSVSVSPGQTASITCSGDKLGDKFAYWYQQKPGHSPVLVIYQDNKRPSGIPGRFSGSNSGNTATLTISGTQAMDEADYYCQAWDSSTAVFGTGTKVTVLA
notes: also called 17D20 F(ab′)2
B5: scFv mother clone 4D9 (scFv)
scFv: QITLKESGPVLVKPTETLTLTCTVSGFSLSNARMGVSWIRQPPGKALEWLAHIFSNDEKSYSTSLKSRLTISKDTSKSQVVLTMTNMDPVDTATYYCARMRYSSSLYGMDVWGQGTRVTVSSKLSGSASAPKLEEGEFSEARVSYELIQPPSVSVSPGQTASITCSGDKLGDKYVSWYQQKPGRSPVLVIYRDTKRPSGIPERFSGSNSGNTATLTISGTQAMDEADYYCQAWDSSTVVFGGGTKLTVLAAAGSEQKLISEEDLNSHHHHHH
notes: also called 4D9 (18L16)

Key:
[1] = target: T1, human MASP-2 (human, UniProt O00187 16-686); assay: cell-based or functional assay
[2] = target: T2, human MASP-2A (catalytically inactive human MASP-2, Ser618 to Ala618) (human, UniProt O00187 16-686); assay: ELISA on adsorbed human MASP-2A, purified scFv monomer
T2 construct: the ELISA and Biacore methods say only 'MASP-2A', so a tag may have been present; also called huMASP2A; huMASP-2A

[3] = target: T3, African Green monkey MASP-2 (in African Green monkey serum) (African Green monkey); assay: cell-based or functional assay
[4] = target: rat MASP-2 (in rat serum) (rat, UniProt Q9JJS8 20-685); assay: cell-based or functional assay
[5] = target: T1, human MASP-2; assay: cell-based or functional assay; remark: listed apart in the source
[6] = target: T1, human MASP-2; assay: cell-based or functional assay; remark: listed apart in the source
[7] = target: T2, human MASP-2A (catalytically inactive …); assay: ELISA, purified scFv titrated on physically adsorbed human MASP-2A
[8] = target: T3, African Green monkey MASP-2 (in African …); assay: cell-based or functional assay; remark: listed apart in the source
[9] = target: T1, human MASP-2; assay: cell-based or functional assay; remark: listed apart in the source
[10] = target: T3, African Green monkey MASP-2 (in African …); assay: cell-based or functional assay; remark: listed apart in the source
[11] = target: T1, human MASP-2; assay: cell-based or functional assay; remark: listed apart in the source
[12] = target: T2, human MASP-2A (catalytically inactive …); assay: SPR (Biacore), MASP-2A amine coupled to CM5 chip, scFv monomer in solution
[13] = target: T2, human MASP-2A (catalytically inactive …); assay: SPR (Biacore), scFv captured by anti-cMyc antibody, MASP-2A in solution
[14] = target: T1, human MASP-2; assay: cell-based or functional assay; remark: listed apart in the source
[15] = target: T2, human MASP-2A (catalytically inactive …); assay: titration ELISA on coated human MASP-2A ('Binding affinity'), scFv
[16] = target: T1, human MASP-2; assay: cell-based or functional assay; remark: listed apart in the source
[17] = target: T2, human MASP-2A (catalytically inactive …); assay: Biacore, microscale-expressed scFv on MASP-2A coated CM5 chip
Procedure: Therefore, three different scFv libraries were constructed by PCR where the amino acid positions 1, 2 and 3 were randomized to the set of all possible 20 amino acids using degenerate codons. After cloning the libraries, microscale expression was performed and scFv binding was monitored on a MASP-2A coated CM5 chip (not shown).

[18] = target: T2, human MASP-2A (catalytically inactive …); assay: titration ELISA on coated human MASP-2A ('Binding affinity'), F(ab′)2
Procedure: The clones were then purified and re-tested in an ELISA and activity assay as follows. Human MASP-2A was coated at 3 μg/ml in PBS on a maxisorp plate, IgG (45 μg/ml) and Fab′2 (30 μg/ml) were diluted in PBS-Tween to a starting concentration of 300 nM, and further with 3-fold dilutions. IgGs were detected with HRP conjugated Goat α-Human IgG (Southern Biotech) and the F(ab′)2 were detected with HRP-conjugated Goat α-Human IgG H+L (Pierce 31412). The reaction was developed with TMB substrate and stopped with 2M H₂SO₄.

[19] = target: T2, human MASP-2A (catalytically inactive …); assay: SPR (Biacore), scFv captured by anti-cMyc antibody, MASP-2A in solution; MASP-2 in solution, scFv captured (not immobilized MASP-2)

T1 sequence (O00187 16-686): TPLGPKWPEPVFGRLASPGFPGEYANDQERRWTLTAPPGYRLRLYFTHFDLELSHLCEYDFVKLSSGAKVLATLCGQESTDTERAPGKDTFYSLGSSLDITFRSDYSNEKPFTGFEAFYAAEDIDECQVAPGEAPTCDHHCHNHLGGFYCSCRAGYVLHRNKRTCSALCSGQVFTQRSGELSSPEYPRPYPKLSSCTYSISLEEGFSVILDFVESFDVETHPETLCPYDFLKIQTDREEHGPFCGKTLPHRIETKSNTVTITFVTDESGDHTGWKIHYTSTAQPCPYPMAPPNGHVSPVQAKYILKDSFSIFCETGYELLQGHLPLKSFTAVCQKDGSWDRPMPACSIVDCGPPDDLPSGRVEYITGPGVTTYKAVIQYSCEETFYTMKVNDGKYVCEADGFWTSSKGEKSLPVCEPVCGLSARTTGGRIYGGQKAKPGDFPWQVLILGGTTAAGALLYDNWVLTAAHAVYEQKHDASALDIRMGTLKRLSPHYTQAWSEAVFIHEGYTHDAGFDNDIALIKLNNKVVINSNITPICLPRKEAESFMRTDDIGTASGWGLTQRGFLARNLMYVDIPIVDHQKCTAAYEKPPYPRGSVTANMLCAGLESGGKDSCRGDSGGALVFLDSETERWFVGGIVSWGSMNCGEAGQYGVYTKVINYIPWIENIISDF
Chain of rat MASP-2 (in rat serum) (Q9JJS8 other isoform, or with tags, fused parts or gaps limits assumed): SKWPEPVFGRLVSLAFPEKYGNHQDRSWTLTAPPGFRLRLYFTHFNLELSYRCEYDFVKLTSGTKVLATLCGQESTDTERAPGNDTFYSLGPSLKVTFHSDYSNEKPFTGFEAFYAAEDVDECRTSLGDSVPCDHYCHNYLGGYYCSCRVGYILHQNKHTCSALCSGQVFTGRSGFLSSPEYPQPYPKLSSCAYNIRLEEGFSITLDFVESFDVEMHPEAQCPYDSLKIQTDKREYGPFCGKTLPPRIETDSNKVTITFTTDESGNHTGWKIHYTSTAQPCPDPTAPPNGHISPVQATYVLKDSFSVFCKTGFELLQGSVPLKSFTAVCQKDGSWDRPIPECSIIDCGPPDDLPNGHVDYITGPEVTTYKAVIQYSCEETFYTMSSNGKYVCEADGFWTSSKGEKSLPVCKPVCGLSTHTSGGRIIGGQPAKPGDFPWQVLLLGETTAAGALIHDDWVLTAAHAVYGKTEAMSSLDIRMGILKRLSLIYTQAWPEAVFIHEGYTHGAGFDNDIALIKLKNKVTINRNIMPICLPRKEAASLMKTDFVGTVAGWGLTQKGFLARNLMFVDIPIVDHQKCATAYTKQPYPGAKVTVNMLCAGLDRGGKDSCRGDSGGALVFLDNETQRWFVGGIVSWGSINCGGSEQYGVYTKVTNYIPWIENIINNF
T2 sequence (O00187 16-686 S633A): as the sequence (O00187 16-686) above, with S618A counted along it

Binder | 1% human serum C3 assay IC50 [1] | Kd [2] | IC50, C3c release, 0.2% African Green serum (first experiment) [3] | IC50, C3c release, 0.2% African Green serum (second experiment) [3] | IC50, C3c release, 0.375% rat serum (second experiment) [4] | IC50, C3c release, 1% human serum (first experiment) [5] | IC50, C3c release, 1% human serum (second experiment) [5] | Complement assay IC50 [6] | EC50 (read off the curve) [7] | Functional IC50, C3b deposition, non-human primate serum Exp #1 [10] | Functional IC50, C3b deposition, non-human primate serum Exp #2 [10] | Functional IC50, C3b deposition, human serum Exp #1 [11] | Functional IC50, C3b deposition, human serum Exp #2 [11] | Functional IC50, C3b deposition, human serum Exp #3 [11] | Functional IC50, C3b deposition, human serum Exp #4 [11] | Kd [12] | C3 convertase assay using 1% human serum, IC50 (first experiment) [14] | C3 convertase assay using 1% human serum, IC50 (second experiment) [14] | Inhibitory activity in Human Serum IC50 (C3b deposition, 0.5% human serum) [16] | other results
B1 | 48 nM | 48.6 nM | 63.8 nM | 81.1 nM | 141 nM | 39.9 nM | 57.7 nM | 10.3 nM | ~0.8 nM |  |  |  |  |  |  |  |  |  |  | 90% human serum C3 assay IC50 [1]: 15 nM; 90% human serum C4 assay IC50 [1]: 230 nM; IC50, C3c release, 0.375% rat serum (first experiment) [4]: 79.3 nM
B2 | 68 nM | 18.9 nM | 92.9 nM | 81.4 nM | 196 nM | 65.3 nM | 73.5 nM | 8.8 nM | ~0.9 nM | 95.6 nM | 58.8 nM | 15.4 nM | 65.4 nM | 24.8 nM | 19.2 nM | 3560 nM | 36.2 nM | 77.6 nM | 15.4 nM | C3 Assay IC50, non-human primate serum Exp #1 [8]: 95 nM; C3 Assay IC50, non-human primate serum Exp #2 [8]: 58 nM; C3 Assay IC50, non-human primate serum mean [8]: 76 nM; C3 Assay IC50 in dilute serum (1%), human serum Exp #1 [9]: 19 nM; C3 Assay IC50 in dilute serum (1%), human serum Exp #2 [9]: 24 nM; C3 Assay IC50 in dilute serum (1%), human serum Exp #3 [9]: 65 nM; C3 Assay IC50 in dilute serum (1%), human serum mean [9]: 36 nM; Kd [13]: 1.68 nM; Kd [15]: 18.9 nM
B3 |  |  |  |  |  |  |  |  |  |  |  |  |  |  |  |  |  |  |  | binding result [17]: binds
B4 |  |  |  |  |  |  |  |  |  |  |  |  |  |  |  |  | 7.3 nM | 13.5 nM |  | Kd [18]: 0.181 nM
B5 |  |  |  |  |  |  |  |  |  | 115 nM | 203 nM | 22 nM | 46.3 nM | 62.2 nM | 38.4 nM | 8.4 nM |  |  | 22 nM | Kd [19]: 0.02 nM
